Source: patent publication US20140105905A1 (Amgen, published 2014)

T1: recombinant human Interleukin-8 (human, UniProt P10145 28-99)
T1 construct: also called rhIL-8; IL-8
T1 sequence (looked up): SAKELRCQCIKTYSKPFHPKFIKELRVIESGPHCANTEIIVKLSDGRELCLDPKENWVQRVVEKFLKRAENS

T2: IL-8 peptide ELRCQCIKTYSK (human)
T2 peptide: ELRCQCIKTYSK


Columns and labels:
[1] = molecular target: T1, recombinant human Interleukin-8; test: KinExA equilibrium in solution, 36 h, mAb 25 pM
Procedure: (§1) The experiments with KinExA were performed using an automated flow immunoassay system, KinExA 3000 [Ohmura et al., Anal. Chem. 73:3392, 2001] in which rhIL-8-coupled beads served as the solid phase. […] Antigen/antibody complexes were incubated at RT for 36 h to 144 h to allow equilibrium to be reached. The mixture was drawn through the rhIL-8-coupled beads to accumulate unbound antibody. The captured anti-hIL-8 mAb is directly proportional to the remaining free binding sites and was detected using solutions containing Cy5-conjugated anti-human secondary antibody in sample buffer. The concentrations, volumes, and flow rates of the secondary antibody solutions were varied to optimize the signal to noise ratio in each experiment. The bound signals were converted into relative values as a proportion of control in the absence of rhIL-8. The equilibrium dissociation constant (Kd) was obtained from nonlinear regression analysis of the data using a one-site homogeneous binding model contained within the software [Blake et Al., Anal. Biochem. 272:123, 1999; Jones et al., Bioconjug Chem 13:408, 2002]. The software calculates the Kd and determines the 95% confidence interval by fitting the data points to a theoretical Kd curve. The 95% confidence interval is given as Kd low and Kd high.
A proportionate amount of free mAb present in the equilibrium mixture was measured by flowing 0.25 ml to 3 ml of the sample on rhIL-8 coupled to CNBr-activated Sepharose beads and detected using 1.0 ml of 1.7 μg/ml of Cy5-labeled goat anti-human IgG Fcγ fragment-specific secondary antibody. Each sample was run in triplicate. The Kd was calculated by the KinExA software and the 95% confidence interval is given as the Kd range.

[2] = molecular target: T1, recombinant human Interleukin-8; test: KinExA equilibrium in solution, 36 h, mAb 200 pM
Procedure: as §1, with “The software calculates the Kd and determines the 95% confidence interval by fitting the data points to a theoretical Kd curve. The 95% confidence interval is given as Kd low and Kd high.” left out
(§2) A proportionate amount of free mAb present in the equilibrium mixture was measured by flowing 0.25 ml to 3 ml of the sample on rhIL-8 coupled to CNBr-activated Sepharose beads and detected using 1.0 ml of 1.7 μg/ml of Cy5-labeled goat anti-human IgG Fcγ fragment-specific secondary antibody. […]

[3] = molecular target: T1, recombinant human Interleukin-8; test: KinExA equilibrium, optimized, n-curve analysis, mAb 4.6 and 27 pM
Description: (§3) The mixture was drawn through the rhIL-8-coupled beads to accumulate unbound antibody. The captured anti-hIL-8 mAb is directly proportional to the remaining free binding sites and was detected using solutions containing Cy5-conjugated anti-human secondary antibody in sample buffer. The concentrations, volumes, and flow rates of the secondary antibody solutions were varied to optimize the signal to noise ratio in each experiment. The bound signals were converted into relative values as a proportion of control in the absence of rhIL-8. The equilibrium dissociation constant (Kd) was obtained from nonlinear regression analysis of the data using a one-site homogeneous binding model contained within the software [Blake et Al., Anal. Biochem. 272:123, 1999; Jones et al., Bioconjug Chem 13:408, 2002]. […]
(§4) A proportionate amount of free mAb present in the equilibrium mixture was measured in KinExA under optimized conditions. For example, for the mixtures containing the low concentration of mAb, 18-36 ml of the sample was flown through rhIL-8 coupled to NHS-activated Sepharose beads and detected using 1-2 ml of 2.0 μg/ml of Cy5-labeled goat anti-human IgG Fcγ fragment-specific secondary antibody. The Kd was calculated using KinExA software by using the “n-curve analysis” selection.

[4] = molecular target: T1, recombinant human Interleukin-8; test: KinExA "Kinetics, Direct" method
Description: (§5) For measuring the association rate constant using KinExA, the same rhIL-8-coupled beads were used as the probe and the “Kinetics, Direct” method was used. The “Kinetics, Direct” experiments by KinExA are identical to KinExA equilibrium assays with respect to bead column height, antibody capture, antibody concentration and antibody detection. Briefly, the mAb was mixed with an amount of antigen that bound approximately 80% of the mAb in the equilibrium experiments and the free antibody present in the sample was probed repeatedly, pre-equilibrium. […] The volumes and flow rates of the antigen-mAb mixtures and the Cy5-labeled secondary antibody were varied depending upon the mAb tested. Data was analyzed utilizing the KinExA analysis software that comes with the KinExA 3000 instrument. This software graphically represents the decrease in binding signals over time, and fits the collected data points to an exact solution of the kinetic differential equations for binding. From this curve, an optimal solution for the kₒₙ is determined. The koff is indirectly calculated from solutions for the kₒₙ and Kd.
(§6) The on-rate measurement by KinExA is not limited by the mAb concentration used in the experiment. […] The concentration of mAb used for on-rate experiments was the same as those used in equilibrium binding experiments. An amount of IL-8 that bound 80% of the mAb in equilibrium binding experiments was mixed with the mAb. The amount of free mAb left in the mixture was measured in KinExA by flowing 1 ml of the mixture repeatedly through rhIL-8 coupled to NHS-activated Sepharose beads and detected using 1 ml of 2.0 μg/ml of Cy5-labeled goat anti-human IgG Fcγ fragment-specific secondary antibody. The kₒₙ was measured using the KinExA software by the “Kinetic, Direct” method and the 95% confidence intervals are given as kₒₙ range. The koff for the mAb was calculated from the measured kₒₙ and Kd of the respective mAb.

[5] = molecular target: T1, recombinant human Interleukin-8; test: calculated from KinExA kon and Kd
Description: as §5, §6

[6] = molecular target: T1, recombinant human Interleukin-8; test: not named in this sentence (summary of the filing's own affinity results)
[7] = molecular target: T2, IL-8 peptide ELRCQCIKTYSK; test: overlapping IL-8 peptides on a membrane; column "Recognized epitope"
Procedure: Briefly, overlapping IL-8 peptides, which were each two amino acids c-terminal to the previous peptide (as shown in FIG. 8) were prepared and attached to a membrane. Antibodies were then added and allowed to bind to the peptides.

[8] = molecular target: T1, recombinant human Interleukin-8; test: KinExA equilibrium in solution, 36 h, mAb 23 pM
Procedure: as §1, with “The software calculates the Kd and determines the 95% confidence interval by fitting the data points to a theoretical Kd curve. The 95% confidence interval is given as Kd low and Kd high.” left out
as §2

[9] = molecular target: T1, recombinant human Interleukin-8; test: KinExA equilibrium, optimized, n-curve analysis, mAb 18 and 120 pM
Description: as §3, §4

[10] = molecular target: T1, recombinant human Interleukin-8; test: KinExA equilibrium in solution, 36 h, mAb 90 pM
Procedure: as §1, with “The software calculates the Kd and determines the 95% confidence interval by fitting the data points to a theoretical Kd curve. The 95% confidence interval is given as Kd low and Kd high.” left out
as §2

[11] = molecular target: T1, recombinant human Interleukin-8; test: KinExA equilibrium in solution, 36 h, mAb 100 pM
Procedure: as §1, with “The software calculates the Kd and determines the 95% confidence interval by fitting the data points to a theoretical Kd curve. The 95% confidence interval is given as Kd low and Kd high.” left out
as §2

[12] = molecular target: T1, recombinant human Interleukin-8; test: KinExA equilibrium, optimized, n-curve analysis, mAb 1.3 and 13 pM
Description: as §3, §4

[13] = molecular target: T1, recombinant human Interleukin-8; test: KinExA equilibrium in solution, 36 h, mAb 10 pM
Procedure: as §1, with “The software calculates the Kd and determines the 95% confidence interval by fitting the data points to a theoretical Kd curve. The 95% confidence interval is given as Kd low and Kd high.” left out
as §2

Binder | Kd [1] [nM] | kon [4] [M⁻¹ s⁻¹] | koff [5] [s⁻¹] | Kd [6] [pM] | further results
anti-hIL-8 mAb 1080 (antibody, human IgG2, V domains shown) VH: QVQLQQWGAGLLKPSESLSLTCAVYGGSFFSGYYWSWIRQPPGKGLEWIGEITHSGNTNYNPSLKSRVSISVDTSTNQFSLKLSSVTAADTAVYYCGRGGAEVGFDYWGQGTLVTVSS VL: not shown | 0.63 | – | – | – | –
anti-hIL-8 mAb 469 (antibody, human IgG2, V domains shown, also called antibody number 469) VH: EVQLLESGGGLVQPGGSLRLSCAASGFTFSSYVMSWVRQAPGKGLEWVSAINNSGGSTDYADSVKGRFTISRDNSKNTLYLQMNSLRAEDTAVYYCAKEGRFLEWSLYGLDVWGQGTTVTVSS VL: DIQMTQSPSSLSASVGDRVTIACRASQGIRNDLGWYQQKPGKAPKRLIYAASSLQSGVPSRFGGSGSGTEFTLTISSLQPEDFATYYCLQHNSYPRTFGQGTKVEIK | – | – | – | – | Kd [2]: 0.87 nM
anti-hIL-8 mAb 809 (antibody, human IgG2, V domains shown, also called clone 6G11) VH: QVQLVESGGGVVQPGRSLRLSCAASGFTFSSYGMLWVRQAPGKGLEWVADISYDGSNKYYADSVKGRFTISRDNSKNTLFLQMNSLRAEDTAVYYCARDRIAVADYWGQGTLVTVSS VL: not shown | – | 4.8e+06 | 1.6e-05 | ~2.23 | Kd [3]: 3.29 pM; binding result [7]: binds; Kd [8]: 2.2 pM
anti-hIL-8 mAb 837 (antibody, human IgG2, V domains shown, also called clone 36C6; ABXha-IL-8) VH: QVQLQQWGAGLLKPSETLSLTCAVFGGTFSGYYWTWIRQPPGKGLEWIGEVIHHGSTNYSPSLKSRVTISADTSKSQFSLRLSSVTAADTAVYYCARGGAAAALDSWGQGTLVIVSS VL: not shown | – | 1.1e+06 | 1.9e-05 | ~10.9 | Kd [9]: 0.0157 nM; Kd [10]: 0.011 nM; binding result [7]: binds
anti-hIL-8 mAb 1093 (antibody, human IgG2, V domains shown, also called antibody number 1093) VH: QVQLQQWGAGLLKPSETLSLTCAVFGGSFSGYYWTWIRQPPGKGLEWIGEIIHHGSTNYSPSLKSRVTISADTSKSQFSLRLSSVTAADTAVYYCARGGAAAGLDSWGQGTLVTVSS VL: not shown | – | – | – | – | Kd [11]: 0.2 nM
anti-hIL-8 mAb 861 (antibody, human IgG2, V domains shown, also called antibody number 861) VH: QVQLVESGGGVVQPGRSLRLSCAASGFTFSNYGMHWVRQAPGKGLEWVAVIYFEGSNKYNADSVKGRFTISRDNSKNTLYLQMNSLRAEDTAVYYCARSPYGDYLDYWGQGTLVTVSS VL: EIVLTQSPGTLSLSPGERATLSCRASQTIDYNYLHWYQQKPGQAPRLLIYGTFIRATVIPDRFSGSGSGTDFTLTISRLEPEDIAVYYCQQFGRSPLTFGGGTKVEIK | 0.0029 | 4.4e+06 | 1.3e-05 | ~2.89 | Kd [12]: 3 pM
anti-hIL-8 mAb 142 (antibody, human IgG2, V domains shown, also called antibody number 142) VH: QVQLVQSGAEVKKPGASVKVSCKASGYTFTGYYMHWVRQAPGQGLEWMGWINSNSGGTNYSQKFQGRVTMTRDTSISTVYMELSRLRSDDTAVYYCASGYSYGYRYYYYGMDVWGQGTTVTVSS VL: DIQMTQSPSSLSASVGDRVTITCRASQGISNSLAWYQQKPGKVPNLLIYAASTLQSGVPSRFSGSGSGTDFTLTISSLQPEDVATYYCQKYNSVPLTFGGGTKVEIK | 0.4 | – | – | – | –
anti-hIL-8 mAb 203 (antibody, human IgG2, V domains shown, also called antibody number 203) VH: QVQLVQSGAEVKKPGASVKVSCKASGYTFTGYYIHWVRQAPGQGLEWMGWINSNSGGTNFAQKFQGRVTMTRDTSISTAYMELSRLRPDDTAVYYCASGYRYGYRYYYYGMDVWGQGTTVTVSS VL: DIQMTQSPSSLSASVGDRVTITCRASQGISNSLAWYQQKPGKVPKLLIYAASTLQSGVPSRFSGSGSGTDFTLTISSLQPEDVATYYCQKYNSVPLTFGGGTKVEIN | 0.19 | – | – | – | –
anti-hIL-8 mAb 33 (antibody, human IgG2, V domains shown, also called antibody number 33) VH: QVQLQQWGAGLLKPSETLSLTCAVYGGFFSGYYWSWIRQPPGKGLEWIGEINHSGSTNYNPSLKSRVTISVDTSKNQFSLKLISVTAADTAVYYCARGSAAEAFDIWGQGTMVTVSS VL: not shown | – | – | – | – | Kd [13]: 0.28 nM
